Measured values from the supplement of paper PMC9732359.
± gives the uncertainty stated by the source.

Assay: protein stability index of a GFP-peptide fusion (yeast GPS) (PSI 1-4); higher = more stable; sorted into four equal gates, so the index is relative within each strain
Method in brief: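 Each library plasmid carries Cherry plus GFP with a tiled 17-residue yeast protein peptide fused downstream, and the pooled library was carried in yeast. Mid-log cultures in leucine-free medium were sorted into four equal gates by GFP/Cherry ratio. Reads from Illumina sequencing of PCR-amplified plasmids from each gate were assigned to strains by barcodes. Per peptide, the protein stability index was computed as the summed products of gate read frequency and gate number.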

Sequence	protein stability index (doa10∆)	protein stability index (pdr5∆)	protein stability index (san1∆)	protein stability index (ubr1∆)
QSTQTDLEKTERIVVSY [SMC2]	2.98 ± 0.052	2.94 ± 0.065	2.56 ± 0.058	2.69 ± 0.044
QTARKSTGGKAPRKQLA [HHT1]	3.18 ± 0.11	3.29 ± 0.098	3.05 ± 0.072	3.37 ± 0.086
QTDAIKSDEAKWKPVLS [RPN5]	2.62 ± 0.14	2.99 ± 0.19	3.27 ± 0.075	3.2 ± 0.16
QTGTRRNSKLLNTKSIQ [MCD1]	3.29 ± 0.2	3.19 ± 0.18	3.05 ± 0.085	3.2 ± 0.072
QTKSNGTAGGNTFGSSS [YJL041W/NSP1]	3.28 ± 0.063	2.84 ± 0.064	2.96 ± 0.055	3.22 ± 0.053
QTSVTTNFNEITNTDET [SWP82]	2.84 ± 0.061	3.09 ± 0.051	2.86 ± 0.042	3.14 ± 0.039
QTYINQELGFCELLKLT [SSN2]	2.81 ± 0.24	2.45 ± 0.12	2.39 ± 0.17	2.67 ± 0.093
QVEYALESISHAGTAIG [PRE9]	2.34 ± 0.077	2.33 ± 0.083	2.4 ± 0.082	2.52 ± 0.07
QVFSVKDSTAGKKVFET [YJR042W/NUP85]			3.09 ± 0.2	
QVGDGLEILIVTKDGVR [PRE7]	2.64 ± 0.054	2.6 ± 0.049	2.92 ± 0.053	2.76 ± 0.052
QVLNRYTYSSTLSHLRR [RPB2]	2.88 ± 0.043	2.83 ± 0.041	2.77 ± 0.041	2.81 ± 0.03
QVLSQSADPSLLIDQFS [SWI1]	3.03 ± 0.1	2.96 ± 0.073	3.02 ± 0.084	2.99 ± 0.057
QVQGQQQAQSFVGKKNT [SSN3]	2.55 ± 0.053	2.69 ± 0.048	2.57 ± 0.052	2.57 ± 0.041
QWFEAHYGQTLGKKKNV [RPS8A]	2.556 ± 0.025	2.876 ± 0.025	2.44 ± 0.027	2.647 ± 0.022
QYSLERNSPFWWTNSHH [PRP8]	2.56 ± 0.078	2.79 ± 0.065	2.4 ± 0.057	2.69 ± 0.052
QYYRGLPLYEKNTLLER [SWP82]	3.13 ± 0.12	3.34 ± 0.11	3.13 ± 0.072	3.13 ± 0.049
RAGVTIPSIPNPIANHT [SNF5]	2.46 ± 0.05	2.61 ± 0.039	2.43 ± 0.041	2.64 ± 0.031
RAKSCGVDAMSVDDLKK [RPL1A]	2.54 ± 0.078	2.41 ± 0.078	2.69 ± 0.075	2.48 ± 0.05
RAKSSSHLFNEYSYVDS [RPN4]	2.62 ± 0.16	3.23 ± 0.24	3.25 ± 0.19	2.63 ± 0.12
RALQENGIIMNGTLIGC [YMR153W/NUP53]	1.88 ± 0.09	2.28 ± 0.071	2.93 ± 0.13	3.06 ± 0.066
RAPELLLGARHYTPAVD [SSN3]	1.67 ± 0.12	1.08 ± 0.13	1.9 ± 0.3	1.56 ± 0.11
RAQHVKKLATRPKCGDC [RPL34A]	3.06 ± 0.14	3.06 ± 0.12	2.69 ± 0.11	3.13 ± 0.084
RASDLRMTIRTRGRSAT [RRP43]	2.93 ± 0.1	2.36 ± 0.093	2.22 ± 0.17	2.33 ± 0.11
RATNCRKRKCGHTNQLR [RPL40A]	3.25 ± 0.092	3.13 ± 0.058	3.12 ± 0.048	3.17 ± 0.051
RDIFQEDEENSDVLLFQ [RGR1]	3.37 ± 0.061	3.46 ± 0.071	3.4 ± 0.039	3.23 ± 0.035
RDKAGRLAEVNLKDLNN [RPO21]	3.15 ± 0.11	2.75 ± 0.083	2.55 ± 0.086	2.79 ± 0.11
RDLGDDRVFNVPTIGVV [YJR042W/NUP85]			3.41 ± 0.19	
